US7351690B2, “Knockout identification of target-specific sites in peptides” (priority 2000, dated 2008)
Square brackets hold non-standard residues; d marks the D form. Ends that are not written are not given here. Nle = CCCC[C@H](N)C(=O)O

Experiments:
MC1-R = molecular target: T1, MC1-R (Mus musculus, UniProt Q01727); assay: competitive inhibition binding assay, 125I-NDP-alpha-MSH, B-16 mouse melanoma cell membranes; details: for % Inhibition at 1 μM at Melanocortin Receptor 1: 1 μM test peptide, 0.4 nM 125I-NDP-alpha-MSH, B-16 mouse melanoma cell membranes
T1 construct: membranes prepared from hMC3-R, hMC4-R, hMC5-R, and B-16 mouse melanoma cells (containing MC1-R); endogenous in cells; host or cells: B-16 mouse melanoma cells (membranes)
T1 sequence (Q01727 whole entry): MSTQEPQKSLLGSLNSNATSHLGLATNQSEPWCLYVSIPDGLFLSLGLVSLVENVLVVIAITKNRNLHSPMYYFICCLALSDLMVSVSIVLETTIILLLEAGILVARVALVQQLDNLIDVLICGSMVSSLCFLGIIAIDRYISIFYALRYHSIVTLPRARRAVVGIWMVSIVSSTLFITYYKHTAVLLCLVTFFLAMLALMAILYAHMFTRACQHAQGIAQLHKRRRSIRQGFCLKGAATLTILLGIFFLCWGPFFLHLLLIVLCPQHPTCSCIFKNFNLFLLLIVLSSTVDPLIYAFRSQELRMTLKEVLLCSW
Protocol: (§1) The competitive inhibition binding assay was conducted using membranes prepared from hMC3-R, hMC4-R, hMC5-R, and B-16 mouse melanoma cells (containing MC1-R) using 0.4 nM ^125I-NDP-alpha-MSH (New England Nuclear, Boston, Mass., USA) in 50 mM HEPES buffer containing 1 mM MgCl2, 2 mM CaCl2, and 5 mM KCl, at pH 7.2. The assay tube also contained a chosen concentration of the test peptide of this invention complexed to a rhenium metal ion, typically at a 1 μM concentration, for determining its efficacy in inhibiting the binding of ^125I-NDP-alpha-MSH to its receptor. Non-specific binding was measured by complete inhibition of binding of ^125I-NDP-alpha-MSH in the assay with the presence of 1 μM alpha-MSH. Incubation was for 90 minutes at room temperature, after which the assay mixture was filtered and the membranes washed three times with ice cold buffer. The filter was dried and counted in a gamma counter for remaining radioactivity bound to the membranes. 100% specific binding was defined as the difference in radioactivity (cpm) bound to cell membranes in the absence and presence of 1 μM alpha-MSH. The cpm obtained in presence of test compounds were normalized with respect to 100% specific binding to determine the percent inhibition of ^125I-NDP-alpha MSH binding. Each assay was conducted in triplicate and the actual mean valves are described.

hMC3-R = molecular target: T2, hMC3-R (Homo sapiens, UniProt P41968); assay: competitive inhibition binding assay, 125I-NDP-alpha-MSH, hMC3-R membranes; details: for % Inhibition at 1 μM at Melanocortin Receptor 3: 1 μM test peptide, 0.4 nM 125I-NDP-alpha-MSH, hMC3-R membranes
T2 construct: expressed in transfected cells
T2 sequence (P41968 whole entry): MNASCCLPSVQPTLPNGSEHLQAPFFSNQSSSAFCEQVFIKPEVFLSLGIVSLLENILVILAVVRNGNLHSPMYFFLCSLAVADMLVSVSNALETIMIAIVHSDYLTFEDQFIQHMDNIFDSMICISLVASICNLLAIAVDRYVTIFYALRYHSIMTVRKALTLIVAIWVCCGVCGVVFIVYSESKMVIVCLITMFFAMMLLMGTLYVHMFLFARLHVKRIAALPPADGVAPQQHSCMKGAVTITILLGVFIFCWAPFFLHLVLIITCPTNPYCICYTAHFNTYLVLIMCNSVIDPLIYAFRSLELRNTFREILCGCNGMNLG
Protocol: as §1

hMC4-R = molecular target: T3, hMC4-R (Homo sapiens, UniProt P32245); assay: competitive inhibition binding assay, 125I-NDP-alpha-MSH, hMC4-R membranes; details: for % Inhibition at 1 μM at Melanocortin Receptor 4: 1 μM test peptide, 0.4 nM 125I-NDP-alpha-MSH, hMC4-R membranes
T3 construct: expressed in transfected cells
T3 sequence (P32245 whole entry): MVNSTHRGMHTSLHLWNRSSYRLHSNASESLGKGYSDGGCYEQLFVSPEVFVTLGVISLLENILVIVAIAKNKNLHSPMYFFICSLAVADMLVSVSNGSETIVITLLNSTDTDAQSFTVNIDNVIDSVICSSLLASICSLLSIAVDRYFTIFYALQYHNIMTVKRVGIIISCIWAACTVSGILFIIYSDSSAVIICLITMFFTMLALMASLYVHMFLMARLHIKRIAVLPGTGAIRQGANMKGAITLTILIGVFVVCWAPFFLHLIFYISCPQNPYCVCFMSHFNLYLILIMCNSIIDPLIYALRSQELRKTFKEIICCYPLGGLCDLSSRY
Protocol: as §1

hMC5-R = molecular target: T4, hMC5-R (Homo sapiens, UniProt P33032); assay: competitive inhibition binding assay, 125I-NDP-alpha-MSH, hMC5-R membranes; details: for % Inhibition at 1 μM at Melanocortin Receptor 5: 1 μM test peptide, 0.4 nM 125I-NDP-alpha-MSH, hMC5-R membranes
T4 construct: expressed in transfected cells
T4 sequence (P33032 whole entry): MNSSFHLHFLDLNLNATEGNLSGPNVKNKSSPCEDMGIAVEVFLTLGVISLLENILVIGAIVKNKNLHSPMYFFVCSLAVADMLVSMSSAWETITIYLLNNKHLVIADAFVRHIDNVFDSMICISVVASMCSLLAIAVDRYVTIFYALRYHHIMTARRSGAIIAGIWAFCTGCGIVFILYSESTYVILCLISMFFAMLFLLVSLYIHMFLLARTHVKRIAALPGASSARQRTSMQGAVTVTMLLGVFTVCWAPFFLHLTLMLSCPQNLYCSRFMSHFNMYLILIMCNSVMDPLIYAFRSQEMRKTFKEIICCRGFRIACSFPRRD
Protocol: as §1

Ac-Ser-Tyr-Ser-Nle-Glu-D-Cys-His-Phe-Arg-Trp-Gly-Lys-Pro-Val-NH2 (Ac-SYS[Nle]E[dC]HFRWGKPV-NH2; numbers in words are those of the source; also: oxorhenium(V) N3S1 chelate via Cys (Re(V)=O)) [2-9]
% Inhibition at 1 μM at Melanocortin Receptor 1 (MC1-R): 92% | % Inhibition at 1 μM at Melanocortin Receptor 3 (hMC3-R): 13% | % Inhibition at 1 μM at Melanocortin Receptor 4 (hMC4-R): 35% | % Inhibition at 1 μM at Melanocortin Receptor 5 (hMC5-R): 2%

Ac-Ser-Tyr-Ser-Nle-Glu-His-Phe-Arg-Trp-Gly-Lys-Gly-Val-D-Cys-NH2 (EHFRWGKGV; not fully specified; Ac-Ser-Tyr-Ser-Nle N-term; D-Cys; amide; printed: Glu-His-Phe-Arg-Trp-Gly-Lys-Gly-Val-) [2-1]
% Inhibition at 1 μM at Melanocortin Receptor 1 (MC1-R): 97% | % Inhibition at 1 μM at Melanocortin Receptor 3 (hMC3-R): 72% | % Inhibition at 1 μM at Melanocortin Receptor 4 (hMC4-R): 46% | % Inhibition at 1 μM at Melanocortin Receptor 5 (hMC5-R): 53%

Tyr-Val-Nle-Gly-His-Cys-D-Phe-Arg-Trp-Asp-Arg-Phe-NH2 [3-8] (YV[Nle]GHC[dF]RWDRF-NH2; numbers in words are those of the source; also: oxorhenium(V) N3S1 chelate complex (Re=O))
% Inhibition at 1 μM at Melanocortin Receptor 1 (MC1-R): 86% | % Inhibition at 1 μM at Melanocortin Receptor 3 (hMC3-R): 60% | % Inhibition at 1 μM at Melanocortin Receptor 4 (hMC4-R): 55% | % Inhibition at 1 μM at Melanocortin Receptor 5 (hMC5-R): 84%

Tyr-Val-Nle-Gly-His-D-Phe-Arg-Trp-Asp-Arg-Cys-Phe-NH2 (YV[Nle]GH[dF]RWDRCF-NH2; also: Re complex) [3-2]
% Inhibition at 1 μM at Melanocortin Receptor 1 (MC1-R): 99% | % Inhibition at 1 μM at Melanocortin Receptor 3 (hMC3-R): 91% | % Inhibition at 1 μM at Melanocortin Receptor 4 (hMC4-R): 89% | % Inhibition at 1 μM at Melanocortin Receptor 5 (hMC5-R): 100%

Ac-Ser-Tyr-Ser-Nle-Glu-His-Phe-Arg-D-Cys-Trp-Gly-Lys-Pro-Val-NH2 (chain 1 Ac-SYS[Nle]EHFR; chain 2 [dC]WGKPV-NH2; not fully specified (bridges); numbers in words are those of the source; also: oxorhenium(V) N3S1 chelate (Re(V)=O)) [2-6]
% Inhibition at 1 μM at Melanocortin Receptor 1 (MC1-R): 46% | % Inhibition at 1 μM at Melanocortin Receptor 3 (hMC3-R): 2% | % Inhibition at 1 μM at Melanocortin Receptor 4 (hMC4-R): 6% | % Inhibition at 1 μM at Melanocortin Receptor 5 (hMC5-R): 6%

Ac-Ser-Tyr-Ser-Nle-Glu-His-Phe-Arg-Trp-Gly-Lys-Gly-Cys-Val-NH2 (Ac-SYS[Nle]EHFRWGKGCV-NH2; not fully specified (bridges); printed as Ac-Ser-Tyr-Ser-Nle-Glu-His-Phe-Arg-Trp-Gly-Lys-Gly-Cys-Val-NH2; numbers in words are those of the source; also: oxorhenium(V) N3S1 chelate (Re(V)=O)) [1-2]
% Inhibition at 1 μM at Melanocortin Receptor 1 (MC1-R): 87% | % Inhibition at 1 μM at Melanocortin Receptor 3 (hMC3-R): 6% | % Inhibition at 1 μM at Melanocortin Receptor 4 (hMC4-R): 0% | % Inhibition at 1 μM at Melanocortin Receptor 5 (hMC5-R): 37%

Ac-Ser-Tyr-Ser-Nle-D-Cys-Glu-His-Phe-Arg-Trp-Gly-Lys-Pro-Val-NH2 (Ac-SYS[Nle][dC]EHFRWGKPV-NH2; numbers in words are those of the source; also: oxorhenium(V) N3S1 chelate via Cys (Re(V)=O)) [2-10]
% Inhibition at 1 μM at Melanocortin Receptor 1 (MC1-R): 65% | % Inhibition at 1 μM at Melanocortin Receptor 3 (hMC3-R): 0% | % Inhibition at 1 μM at Melanocortin Receptor 4 (hMC4-R): 18% | % Inhibition at 1 μM at Melanocortin Receptor 5 (hMC5-R): 0%

Tyr-Val-Nle-Gly-Cys-His-Phe-Arg-Trp-Asp-Arg-Phe-NH2 (YV[Nle]GCHFRWDRF-NH2; not fully specified (bridges); printed as Tyr-Val-Nle-Gly-Cys-His-Phe-Arg-Trp-Asp-Arg-Phe-NH2; numbers in words are those of the source; also: oxorhenium(V) N3S1 chelate (Re=O) with Cys) [4-8]
% Inhibition at 1 μM at Melanocortin Receptor 1 (MC1-R): 13% | % Inhibition at 1 μM at Melanocortin Receptor 3 (hMC3-R): 33% | % Inhibition at 1 μM at Melanocortin Receptor 4 (hMC4-R): −1% | % Inhibition at 1 μM at Melanocortin Receptor 5 (hMC5-R): 45%

Tyr-Val-Nle-Gly-His-D-Phe-Arg-Cys-Asp-Arg-Phe-NH2 (YV[Nle]GH[dF]RCDRF-NH2; numbers in words are those of the source; also: oxorhenium(V) N3S1 chelate complex (Re=O)) [5-4]
% Inhibition at 1 μM at Melanocortin Receptor 1 (MC1-R): 86% | % Inhibition at 1 μM at Melanocortin Receptor 3 (hMC3-R): 11% | % Inhibition at 1 μM at Melanocortin Receptor 4 (hMC4-R): 18% | % Inhibition at 1 μM at Melanocortin Receptor 5 (hMC5-R): 58%

Tyr-Val-Nle-Gly-His-Cys-Arg-Trp-Asp-Arg-Phe-NH2 (YV[Nle]GHCRWDRF-NH2; numbers in words are those of the source; also: oxorhenium(V) N3S1 chelate (Re=O) with Cys) [5-6]
% Inhibition at 1 μM at Melanocortin Receptor 1 (MC1-R): 74% | % Inhibition at 1 μM at Melanocortin Receptor 3 (hMC3-R): 26% | % Inhibition at 1 μM at Melanocortin Receptor 4 (hMC4-R): 4% | % Inhibition at 1 μM at Melanocortin Receptor 5 (hMC5-R): 21%

Tyr-Val-Nle-Cys-His-D-Phe-Arg-Trp-Asp-Arg-Phe-NH2 (YV[Nle]CH[dF]RWDRF-NH2; not fully specified (bridges); printed as Tyr-Val-Nle-Cys-His-D-Phe-Arg-Trp-Asp-Arg-Phe-NH2; numbers in words are those of the source; also: oxorhenium(V) N3S1 chelate complex (Re=O)) [5-8]
% Inhibition at 1 μM at Melanocortin Receptor 1 (MC1-R): 95% | % Inhibition at 1 μM at Melanocortin Receptor 3 (hMC3-R): 89% | % Inhibition at 1 μM at Melanocortin Receptor 4 (hMC4-R): 86% | % Inhibition at 1 μM at Melanocortin Receptor 5 (hMC5-R): 98%

Tyr-Val-Nle-Gly-His-Phe-Arg-Trp-Cys-Asp-Arg-Phe-NH2 (YV[Nle]GHFRWCDRF-NH2; numbers in words are those of the source; also: oxorhenium(V) N3S1 chelate (Re=O) with Cys) [4-4]
% Inhibition at 1 μM at Melanocortin Receptor 1 (MC1-R): 52% | % Inhibition at 1 μM at Melanocortin Receptor 3 (hMC3-R): 20% | % Inhibition at 1 μM at Melanocortin Receptor 4 (hMC4-R): 39% | % Inhibition at 1 μM at Melanocortin Receptor 5 (hMC5-R): 47%

Tyr-Val-Nle-Gly-His-D-Phe-Arg-Cys-Trp-Asp-Arg-Phe-NH2 (YV[Nle]GH[dF]RCWDRF-NH2; also: Re complex) [3-5]
% Inhibition at 1 μM at Melanocortin Receptor 1 (MC1-R): 83% | % Inhibition at 1 μM at Melanocortin Receptor 3 (hMC3-R): 45% | % Inhibition at 1 μM at Melanocortin Receptor 4 (hMC4-R): 33% | % Inhibition at 1 μM at Melanocortin Receptor 5 (hMC5-R): 81%

Ac-Ser-Tyr-Ser-Nle-Glu-His-Phe-Arg-Trp-Gly-Lys-D-Cys-Pro-Val-NH2 (Ac-SYS[Nle]EHFRWGK[dC]PV-NH2; not fully specified (bridges); printed as Ac-Ser-Tyr-Ser-Nle-Glu-His-Phe-Arg-Trp-Gly-Lys-D-Cys-Pro-Val-NH2; numbers in words are those of the source; also: oxorhenium(V) N3S1 chelate (Re(V)=O)) [2-3]
% Inhibition at 1 μM at Melanocortin Receptor 1 (MC1-R): 91% | % Inhibition at 1 μM at Melanocortin Receptor 3 (hMC3-R): 41% | % Inhibition at 1 μM at Melanocortin Receptor 4 (hMC4-R): 25% | % Inhibition at 1 μM at Melanocortin Receptor 5 (hMC5-R): 38%

Tyr-Val-Nle-Gly-His-Phe-Arg-Cys-Trp-Asp-Arg-Phe-NH2 (YV[Nle]GHFRCWDRF-NH2; numbers in words are those of the source; also: oxorhenium(V) N3S1 chelate (Re=O) with Cys) [4-5]
binding to MC1-R, in words (MC1-R): preserved all receptor binding | % Inhibition at 1 μM at Melanocortin Receptor 1 (MC1-R): 89% | binding to MC3-R, in words (hMC3-R): preserved all receptor binding | % Inhibition at 1 μM at Melanocortin Receptor 3 (hMC3-R): 87% | binding to MC4-R, in words (hMC4-R): preserved all receptor binding | % Inhibition at 1 μM at Melanocortin Receptor 4 (hMC4-R): 74% | binding to MC5-R, in words (hMC5-R): preserved all receptor binding | % Inhibition at 1 μM at Melanocortin Receptor 5 (hMC5-R): 68%
